# Experimental data reported in US20150344570A1 (published 2015).
# T1: FcgRIIaR (human, UniProt P12318 34-217)
# T1 construct: extracellular domain; also called FcγRIIa R; FcγRIIa type R; not shown: His tag at the C terminus
# T1 sequence (looked up): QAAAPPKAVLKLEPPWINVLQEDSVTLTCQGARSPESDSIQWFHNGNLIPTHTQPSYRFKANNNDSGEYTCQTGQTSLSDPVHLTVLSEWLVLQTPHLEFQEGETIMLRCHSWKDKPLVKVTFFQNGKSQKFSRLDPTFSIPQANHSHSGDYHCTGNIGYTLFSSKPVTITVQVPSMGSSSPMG
# T2: FcgRIIb (human, UniProt P31994 43-217)
# T2 construct: extracellular domain; also called FcγRIIb; 2b; not shown: His tag at the C terminus
# T2 sequence (looked up): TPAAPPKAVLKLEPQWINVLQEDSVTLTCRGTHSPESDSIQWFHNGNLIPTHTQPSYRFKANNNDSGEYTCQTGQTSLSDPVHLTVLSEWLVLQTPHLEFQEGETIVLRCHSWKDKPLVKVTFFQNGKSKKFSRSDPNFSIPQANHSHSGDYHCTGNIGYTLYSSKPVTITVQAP
# T3: FcgRIIaH (human, UniProt P12318 34-217)
# T3 construct: extracellular domain; also called FcγRIIa H; FcγRIIa type H; not shown: His tag at the C terminus
# T3 sequence (looked up): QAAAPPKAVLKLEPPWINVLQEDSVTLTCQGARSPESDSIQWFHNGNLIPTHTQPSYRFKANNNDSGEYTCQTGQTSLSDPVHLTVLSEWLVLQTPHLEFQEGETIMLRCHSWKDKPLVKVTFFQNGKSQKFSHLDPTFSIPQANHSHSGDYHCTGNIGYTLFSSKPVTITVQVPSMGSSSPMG
# B1: GpH7-A5/GpH7-HA5/GpL16-k0 (antibody, human IgG1, kappa)
# heavy 1: not shown
# heavy 2: QVQLVQSGAEVKKPGASVTVSCKASGYTFTDYEMHWIRQPPGEGLEWIGAIDPKTGDTAYSESFQDRVTLTADKSTSTAYMELSSLTSEDTAVYYCTRFYSYTYWGQGTLVTVSSASTKGPSVFPLAPSSKSTSGGTAALGCLVKDYFPEPVTVSWNSGALTSGVHTFPAVLQSSGLYSLSSVVTVPSSSLGTQTYICNVNHKPSNTKVDKKVEPKSCDKTHTCPPCPAPEYLGGPSVFLFPPKPKDTLMISRTPEVTCVVVDVSHEDPEVKFNWYVDGVEVHNAKTKPREEQYNSTYRVVSVLTVLHQDWLNGKEYKCKVSNKALRAPIEKTISKAKGQPREPQVYTLPPSRDELTKNQVSLTCLVKGFYPSDIAVEWESNGQPENNYKTTPPVLDSDGSFFLYSKLTVDKSRWQQGNVFSCSVMHEALHNHYTQESLSLSP
# light: DIVMTQSPLSLPVTPGEPASISCQASESLVHSNRNTYLHWYLQKPGQSPQLLIYKVSNRFSGVPDRFSGSGSGTDFTLKISRVEAEDVGVYYCSQNTHVPPTFGQGTKVEIERTVAAPSVFIFPPSDEQLKSGTASVVCLLNNFYPREAKVQWKVDNALQSGNSQESVTEQDSKDSTYSLSSTLTLSKADYEKHKVYACEVTHQGLSSPVTKSFNRGEC
# notes: Anti-glypican-3 IgG1 heterodimer; L234Y and P329R in H2
# B2: H240-Kn204/H240-Hl211/L73-k0 (antibody, human IgG1, kappa)
# heavy 1: QDQLVQSGAEVKKPGASVKVSCKASGFNIKDTYIQWVRQAPGQGLEWMGRIDPLRKQTKYREKFEGRVTITADTSTNTAYMELSSLRSEDTAVYYCVRSGREFDYWGQGTLVTVSSASTKGPSVFPLAPSSKSTSGGTAALGCLVKDYFPEPVTVSWNSGALTSGVHTFPAVLQSSGLYSLSSVVTVPSSSLGTQTYICNVNHKPSNTKVDKKVEPKSCDKTHTCPPCPAPEYLGGPSVFLFPPKPKDTLMISRTPEVTCVVVDVSHEDPEVKFNWYVDGVEVHNAKTYPREEQWNSTYRVVSVLTVLHQDWLNGKEYKCKVSNKALPAPIEKTISKAKGQPREPQVCTLPPSRDELTKNQVSLWCLVKGFYPSDIAVEWESNGQPENNYKTTPPVLDSDGSFFLYSKLTVDKSRWQQGNVFSCSVMHEALHNHYTQKSLSLSP
# heavy 2: QDQLVQSGAEVKKPGASVKVSCKASGFNIKDTYIQWVRQAPGQGLEWMGRIDPLRKQTKYREKFEGRVTITADTSTNTAYMELSSLRSEDTAVYYCVRSGREFDYWGQGTLVTVSSASTKGPSVFPLAPSSKSTSGGTAALGCLVKDYFPEPVTVSWNSGALTSGVHTFPAVLQSSGLYSLSSVVTVPSSSLGTQTYICNVNHKPSNTKVDKKVEPKSCDKTHTCPPCPAPELLGGPDVFLFPPKPKDTLMISRTPEVTCVVVDVSHEDPEVKFNWYVDGVEVHNAKTKPREEQYNSTYRVVSVLTVLHQDWLNGKEYKCKVSNKALPMPIEVTISKAKGQPREPQVYTLPPSRCELTKNQVSLSCAVKGFYPSDIAVEWESNGQPENNYKTTPPVLDSDGSFFLVSKLTVDKSRWQQGNVFSCSVMHEALHNHYTQKSLSLSP
# light: DIQMTQSPSSLSASVGDRVTITCRASQDIHKYIAWYQQKPGQAPRLLIQYTSTLQPGVPSRFSGSGSGTDYTFTISSLQPEDIATYYCLQYEQLRTFGGGTKVEIKRTVAAPSVFIFPPSDEQLKSGTASVVCLLNNFYPREAKVQWKVDNALQSGNSQESVTEQDSKDSTYSLSSTLTLSKADYEKHKVYACEVTHQGLSSPVTKSFNRGEC
# B3: H240-afucosyl_G1d/L73-k0 (antibody, human IgG1, kappa)
# heavy: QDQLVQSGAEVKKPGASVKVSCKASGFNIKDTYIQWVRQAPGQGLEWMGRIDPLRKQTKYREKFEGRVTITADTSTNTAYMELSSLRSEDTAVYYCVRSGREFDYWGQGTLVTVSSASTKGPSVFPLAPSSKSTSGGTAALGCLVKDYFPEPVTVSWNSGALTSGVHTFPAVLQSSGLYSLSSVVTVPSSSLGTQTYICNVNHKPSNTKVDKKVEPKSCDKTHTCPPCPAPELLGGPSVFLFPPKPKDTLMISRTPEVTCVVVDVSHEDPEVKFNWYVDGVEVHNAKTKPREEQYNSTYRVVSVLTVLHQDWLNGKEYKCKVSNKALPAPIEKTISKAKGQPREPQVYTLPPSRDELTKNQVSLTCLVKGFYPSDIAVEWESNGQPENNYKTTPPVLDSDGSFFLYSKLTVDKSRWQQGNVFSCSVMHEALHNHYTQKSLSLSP
# light: DIQMTQSPSSLSASVGDRVTITCRASQDIHKYIAWYQQKPGQAPRLLIQYTSTLQPGVPSRFSGSGSGTDYTFTISSLQPEDIATYYCLQYEQLRTFGGGTKVEIKRTVAAPSVFIFPPSDEQLKSGTASVVCLLNNFYPREAKVQWKVDNALQSGNSQESVTEQDSKDSTYSLSSTLTLSKADYEKHKVYACEVTHQGLSSPVTKSFNRGEC
# modifications: fucose removed from the N-linked sugar chain (afucosylated)
# notes: also called afucosylated antibody
# B4: H240-Kn205/H240-Hl212/L73-k0 (antibody, human IgG1, kappa)
# heavy 1: QDQLVQSGAEVKKPGASVKVSCKASGFNIKDTYIQWVRQAPGQGLEWMGRIDPLRKQTKYREKFEGRVTITADTSTNTAYMELSSLRSEDTAVYYCVRSGREFDYWGQGTLVTVSSASTKGPSVFPLAPSSKSTSGGTAALGCLVKDYFPEPVTVSWNSGALTSGVHTFPAVLQSSGLYSLSSVVTVPSSSLGTQTYICNVNHKPSNTKVDKKVEPKSCDKTHTCPPCPAPEYLGGPSVFLFPPKPKDTLMISRTPEVTCVVVDVSHEDPEVKFNWYVDGVEVHNAKTKPREEQWNCTYRVVSVLTVLHQDWLNGKEYKCKVSNKALPAPIEKTISKAKGQPREPQVCTLPPSRDELTKNQVSLWCLVKGFYPSDIAVEWESNGQPENNYKTTPPVLDSDGSFFLYSKLTVDKSRWQQGNVFSCSVMHEALHNHYTQKSLSLSP
# heavy 2: QDQLVQSGAEVKKPGASVKVSCKASGFNIKDTYIQWVRQAPGQGLEWMGRIDPLRKQTKYREKFEGRVTITADTSTNTAYMELSSLRSEDTAVYYCVRSGREFDYWGQGTLVTVSSASTKGPSVFPLAPSSKSTSGGTAALGCLVKDYFPEPVTVSWNSGALTSGVHTFPAVLQSSGLYSLSSVVTVPSSSLGTQTYICNVNHKPSNTKVDKKVEPKSCDKTHTCPPCPAPELLGGPDVFLFPPKPKDTLMISRTPEVTCVVVDVSHEDPEVKFNWYVDGVEVHNAKTKPREEQYNSTYRVVSVLTVLHQDWLNGKEYKCKVSNKALPAPIEVTISKAKGQPREPQVYTLPPSRCELTKNQVSLSCAVKGFYPSDIAVEWESNGQPENNYKTTPPVLDSDGSFFLVSKLTVDKSRWQQGNVFSCSVMHEALHNHYTQKSLSLSP
# light: DIQMTQSPSSLSASVGDRVTITCRASQDIHKYIAWYQQKPGQAPRLLIQYTSTLQPGVPSRFSGSGSGTDYTFTISSLQPEDIATYYCLQYEQLRTFGGGTKVEIKRTVAAPSVFIFPPSDEQLKSGTASVVCLLNNFYPREAKVQWKVDNALQSGNSQESVTEQDSKDSTYSLSSTLTLSKADYEKHKVYACEVTHQGLSSPVTKSFNRGEC
# What was measured:
# [1] = target: T4, FcγRIIIa (human, UniProt P08637 17-208); test: SPR (Biacore), antibody captured on antigen-peptide chip, FcγR as analyte; relative binding amount
# T4 construct: extracellular domain; also called FcgRIIIa; CD16A; not shown: His tag attached to the C terminus
# T4 sequence (P08637 17-208): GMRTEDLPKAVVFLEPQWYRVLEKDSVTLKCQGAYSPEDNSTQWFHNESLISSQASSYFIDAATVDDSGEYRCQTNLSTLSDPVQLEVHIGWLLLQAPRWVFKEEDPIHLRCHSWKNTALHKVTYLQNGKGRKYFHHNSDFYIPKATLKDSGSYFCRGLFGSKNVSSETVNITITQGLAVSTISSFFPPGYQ
# From the text: The expression vectors for the respective H chains were combined in a way that each of the alterations L234Y, G236W, S298A, S239D, A330L, and I332E is present in the same H chain as P329R or in the different H chain from P329R, and the expression vector GpL16-k0 for the L chain was combined with them. Antibodies of interest were expressed and prepared according to the method described in Reference Example 1. The prepared antibodies were used to assay the FcγRIIIa-binding activity. The result of assessment using P329R on the direction of FcγRIIIa recognition by L234Y, G236W, S298A, S239D, A330L, and I332E is summarized in Table 12.
# Analysis of interaction between objective antibody and the FcγR was carried out using Biacore T100 (GE Healthcare). HBS-EP+ (GE Healthcare) was used as the running buffer, and the measurement temperature was set to 25° C. Chips produced by immobilizing the antigen peptide by the amine coupling method to a Series S Sencor Chip CM5 (GE Healthcare), or alternatively, chips produced by allowing preliminarily biotinylated antigen peptides to interact with and immobilize onto a Series S Sensor Chip SA (certified) (GE Healthcare) were used. Antibodies of interest were captured onto an antigen peptide-immobilized chip, and allowed to interact to each FcγR diluted with running buffer. To regenerate and repeatedly use the chip, the antibodies captured on the chip were washed off by reacting 10 mM glycine-HCl, pH 1.5.
# [2] = target: T5, FcgRIIIaV (human, UniProt P08637 17-208); test: SPR (Biacore); KD of H240-Kn033/H240-Hl033/L73-k0 divided by KD of the variant
# T5 construct: extracellular domain; Polymorphic site after J. Clin. Invest; also called FcγRIIIa V; 3aV; not shown: His tag at the C terminus
# T5 sequence (P08637 17-208 F176V limits assumed): as the sequence (P08637 17-208) above, with F160V counted along it
# Method: (§1) Next, the amino acid at position 330 was examined. The A330M alteration has been introduced into H240-Hl076 of H240-Kn125/H240-Hl076/L73-k0. […] L73-k0 was used as the common antibody L chain. Binding of the produced variants to FcgRIa, FcgRIIaR, FcgRIIaH, FcgRIIb, FcgRIIIaF, and FcgRIIIaV was measured according to the method of Reference Example 8.
# (§2) Analysis of interaction between objective antibody and the FcγR was carried out using Biacore T100 (GE Healthcare), Biacore T200, Biacore A100, and Biacore 4000. HBS-EP+ (GE Healthcare) was used as the running buffer, and the measurement temperature was set to 25° C. Chips produced by immobilizing the antigen peptide by the amine coupling method to a Series S sensor Chip CM5 (GE Healthcare), chips produced by allowing preliminarily biotinylated antigen peptides to interact with and immobilize onto a Series S Sensor Chip SA (certified) (GE Healthcare), chips produced by immobilizing Protein L (ACTIGEN, BioVision) to Series S Sencor Chip CM5 (GE Healthcare), or chips produced by immobilizing Protein A/G (Thermo Scientific) to Series S Sencor Chip CM5 (GE Healthcare) were used. Antibodies of interest were captured onto these chips, and allowed to interact to each FcγR diluted with running buffer. To regenerate and repeatedly use the chip, the antibodies captured onto the chip were washed off by reacting 10 mM glycine-HCl, pH 1.5.
# [3] = target: T1, FcgRIIaR; test: as above
# Method: as §1, §2
# [4] = target: T6, FcgRIIIaF (human, UniProt P08637 17-208); test: as above
# T6 construct: extracellular domain; Polymorphic site after J. Clin. Invest; also called FcγRIIIa F; 3aF; not shown: His tag at the C terminus
# T6 sequence (P08637 17-208): as the sequence (P08637 17-208) above
# Method: as §1, §2
# [5] = target: T2, FcgRIIb; test: as above
# Method: as §1, §2
# [6] = target: T3, FcgRIIaH; test: as above
# Method: as §1, §2
Binder,FcγRIIIa BINDING ACTIVITY (relative) [1],fold 3aV [2] [fold],fold 2aR [3] [fold],fold 3aF [4] [fold],fold 2b [5] [fold],fold 2aH [6] [fold]
B1,"60 relative, GpH7-A5/GpH7-B3/GpL16-k0 = 100",–,–,–,–,–
B2,–,6.5,1.2,20.7,2.5,0.7
B3,–,7,1.5,3.7,1.3,0.7
B4,–,11.4,1.2,24.2,2.1,1.4
